Measured values published in ChEMBL document CHEMBL1130856, “A new series of cyclic amino acids as inhibitors of S-adenosyl L-methionine synthetase” (Bioorg Med Chem Lett, 1998).

Test system: CSCC[C@H](N)C(=O)O
Description: Compound was evaluated for its inhibitory activity against recombinant S-adenosyl L-Methionine synthetase (alpha-isoform) in rat liver

Chain of S-adenosylmethionine synthase isoform type-1 (Rattus norvegicus), P13444 (P13444 whole entry, canonical isoform): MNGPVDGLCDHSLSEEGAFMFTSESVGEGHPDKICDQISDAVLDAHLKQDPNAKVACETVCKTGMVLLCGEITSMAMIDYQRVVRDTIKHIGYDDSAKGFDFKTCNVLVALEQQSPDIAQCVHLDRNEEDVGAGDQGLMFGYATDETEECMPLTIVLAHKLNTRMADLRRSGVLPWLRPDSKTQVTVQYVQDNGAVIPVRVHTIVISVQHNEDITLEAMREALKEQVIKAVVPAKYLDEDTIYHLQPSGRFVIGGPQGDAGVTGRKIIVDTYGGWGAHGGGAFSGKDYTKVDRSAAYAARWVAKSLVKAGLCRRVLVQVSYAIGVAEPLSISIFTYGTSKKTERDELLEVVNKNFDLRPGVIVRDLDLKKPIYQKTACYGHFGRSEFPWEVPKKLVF

How did the Km turn out when “S-adenosylmethionine synthase isoform type-1 (Rattus norvegicus), P13444” was run?
The Km was 70 µM.
